Experimental data reported in article PMC3474739, “Novel Frataxin Isoforms May Contribute to the Pathological Mechanism of Friedreich Ataxia” (PLoS ONE, 2012).

B1: frataxin isoform I, mature form (natural protein, human, UniProt Q16595 81-210, looked up)
chain: SGTLGHPGSLDETTYERLAEETLDSLAEFFEDLADKPYTFEDYDVSFGSGVLTVKLGGDLGTYVINKQTPNKQIWLSSPSSGPKRYDWTGKNWVYSHDGVSLHELLAAELTKALKTKLDLSSLAYSGKDA
notes: Cloned into pET24a(+) with NdeI and XhoI sites; also called FXN I; FXN isoform I; source: E. coli BL21(DE3), purified
B2: human ISCU, mitochondrial mature form (natural protein, UniProt Q9H1K1 35-167, looked up)
chain: YHKKVVDHYENPRNVGSLDKTSKNVGTGLVGAPACGDVMKLQIQVDEKGKIVDARFKTFGCGSAIASSSLATEWVKGKTVEEALTIKNTDIAKELCLPPVKLHCSMLAEDAIKAALADYKLKQEPKKGEAEKK
notes: human ISCU, mitochondrial mature form; source: E. coli BL21(DE3), purified
B3: frataxin isoform II (natural protein, human, UniProt Q16595 76-210, looked up)
chain: MNLRKSGTLGHPGSLDETTYERLAEETLDSLAEFFEDLADKPYTFEDYDVSFGSGVLTVKLGGDLGTYVINKQTPNKQIWLSSPSSGPKRYDWTGKNWVYSHDGVSLHELLAAELTKALKTKLDLSSLAYSGKDA
notes: human frataxin isoform II, 135 amino acids, 14.9 kDa, begins at the second AUG (methionine, 76th aa of the FXN precursor) and runs to the stop codon; Cloned into pET24a(+) with NdeI and XhoI sites; also called FXN II; FXN isoform II; source: E. coli BL21(DE3), purified

How the values were obtained:
Assay in all cases: SEC; purified ISCS/ISD11, ISCU and FXN isoform mixed at a molar ratio of 1:1:1, 1 h anaerobically at room temperature, then Superdex200 in 50 mM Tris, 200 mM NaCl, 5 µM PLP, pH 8.0; fractions analysed by SDS-PAGE
Settings in all cases: both partners purified
[1] = biological target: B2
ISCS/ISD11 = biological target: T1, ISCS/ISD11 (human, UniProt Q9Y697 56-457; Q9HD34 1-91)
T1 construct: human mitochondrial ISCS (NFS1) that misses the first 55 amino acids of the precursor (NFS1Δ1-55); human ISD11; Both chains in pACYCDuet-1; also called NFS1Δ1-55 with ISD11; source: E. coli, co-expressed (plasmid pZM90b), purified; also co-expressed with His-ISCU in E. coli BL21(DE3) or CL100(DE3), in lysate
T1 sequence (Q9Y697 56-457, chain 1 of 2): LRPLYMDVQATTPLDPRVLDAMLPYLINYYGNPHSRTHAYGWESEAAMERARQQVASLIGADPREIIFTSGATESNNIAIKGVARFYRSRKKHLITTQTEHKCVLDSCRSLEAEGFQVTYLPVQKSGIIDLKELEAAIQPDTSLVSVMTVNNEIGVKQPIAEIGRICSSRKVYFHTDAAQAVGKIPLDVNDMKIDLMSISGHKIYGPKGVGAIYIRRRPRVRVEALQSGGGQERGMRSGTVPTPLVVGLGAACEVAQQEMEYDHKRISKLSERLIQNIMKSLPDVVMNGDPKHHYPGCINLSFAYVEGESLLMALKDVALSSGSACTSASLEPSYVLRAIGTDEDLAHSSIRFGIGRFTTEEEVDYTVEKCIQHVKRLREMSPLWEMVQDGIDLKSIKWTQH
T1 sequence (Q9HD34 whole entry, chain 2 of 2): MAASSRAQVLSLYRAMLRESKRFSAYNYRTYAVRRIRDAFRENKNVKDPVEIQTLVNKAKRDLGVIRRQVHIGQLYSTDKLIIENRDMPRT

frataxin isoform II = biological target: B3

## B1
[1]
  binding result: binds
ISCS/ISD11
  binding result: binds

## B2
Frataxin isoform II
  binding result: binds
ISCS/ISD11
  binding result: binds

## B3
ISCS/ISD11
  binding result: binds
